In this assay the target is C3b (UniProt P01024 749-1663, most molecules attached to the chip surface via the thioester group). The assay can be described thus: SPR.

B1: miniFH (other)
chain: AGEDCNELPPRRNTEILTGSWSDQTYPEGTQAIYKCRPGYRSLGNVIMVCRKGEWVALNPLRKCQKRPCGHPGDTPFGTFTLTGGNVFEYGVKAVYTCNEGYQLLGEINYRECDTDGWTNDIPICEVVKCLPVTAPENGKIVSSAMEPDREYHFGQAVRFVCNSGYKIEGDEEMHCSDDGFWSKEKPKCVEISCKSPDVINGSPISQKIIYKENERFQYKCNMGYEYSERGDAVCTESGWRPLPSCEEGKCGPPPPIDNGDITSFPLSVYAPASSVEYQCQNLYQLEGNKRITCRNGQWSEPPKCLHPCVISREIMENYNIALRWTAKQKLYSRTGESVEFVCKRGYRLSSRSHTLRTTCWDGKLEYPTCAKR
In the case of B1, the Kd was found to be 709 nM.

B2: midiFH (other)
chain: AGEDCNELPPRRNTEILTGSWSDQTYPEGTQAIYKCRPGYRSLGNVIMVCRKGEWVALNPLRKCQKRPCGHPGDTPFGTFTLTGGNVFEYGVKAVYTCNEGYQLLGEINYRECDTDGWTNDIPICEVVKCLPVTAPENGKIVSSAMEPDREYHFGQAVRFVCNSGYKIEGDEEMHCSDDGFWSKEKPKCVEISCKSPDVINGSPISQKIIYKENERFQYKCNMGYEYSERGDAVCTESGWRPLPSCEEGKCGPPPPIDNGDITSFPLSVYAPASSVEYQCQNLYQLEGNKRITCRNGQWSEPPKCLHPCVISREIMENYNIALRWTAKQKLYSRTGESVEFVCKRGYRLSSRSHTLRTTCWDGKLEYPTCAKREDCNELPPRRNTEILTGSWSDQTYPEGTQAIYKCRPGYRSLGNVIMVCRKGEWVALNPLRKCQKRPCGHPGDTPFGTFTLTGGNVFEYGVKAVYTCNEGYQLLGEINYRECDTDGWTNDIPICEVVKCLPVTAPENGKIVSSAMEPDREYHFGQAVRFVCNSGYKIEGDEEMHCSDDGFWSKEKPKCVEISCKSPDVINGSPISQKIIYKENERFQYKCNMGYEYSERGDAVCTESGWRPLPSCEEGKCGPPPPIDNGDITSFPLSVYAPASSVEYQCQNLYQLEGNKRITCRNGQWSEPPKCLHPCVISREIMENYNIALRWTAKQKLYSRTGESVEFVCKRGYRLSSRSHTLRTTCWDGKLEYPTCAKR
B2 yielded an equilibrium dissociation constant (Kd) of 27 nM. This Kd is about 26-fold lower than that of the molecule before.

A word on the Kd: it is the concentration at which binding is half-saturated. Low values mean tighter binding, high ones weaker binding.
